± gives the uncertainty stated by the source.
Experiment: self-splicing fitness, log relative to wild type (ln ratio); higher = more splicing; Tetrahymena group I intron in knt gene, E. coli kanamycin selection, DiMSum; sequences stand for … in CUCUCU…GGAGGGAAAAGUUAUCAGGCAUGCACCUGGUAGCUAGUCUUUAAACCAAUAGAUUGCAUCGGUUUAAAAGGCAAGACCGUCAAAUUGCGGGAAAGGGGUCAACAGCCGUUCAGUACCAAGUCUCAGGGGAAACUUUGAGAUGGCCUUGCAAAGGGUAUGGUAAUAAGCUGACGGACAUGGUCCUAACCACGCAGCCAAGUCCUAAGUCAACAGAUCUUCUGUUGAUAUGGAUGCAGUUCACAGACUAAAUGUCGGUCGGGGAAGAUGUAUUCUUCUCAUAAGAUAUAGUCGGACCUCUCCUUAAUGGGAGCUAGCGGAUGAAGUGAUGCAACACUGGAGCCGCUGGGAACUAAUUUGUAUGCGAAAGUAUAUUGAUUAGUUUUGGAGUACUCGUGGUCG
Procedure, shortened: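 Six replicate transformations of E. coli BL21(DE3) with a pET-22b(+) library were grown overnight at 37°C or 30°C. The library randomised all eight P1ex-region intron nucleotides, the intron lying in the knt kanamycin-resistance gene, and plates were LB agar with or without 25 μg/mL kanamycin plus 100 μg/mL carbenicillin, 50 μM IPTG and 0.2% rhamnose. Pooled colonies were amplicon-sequenced on an Illumina HiSeq 2500, and fitness is the DiMSum error-weighted combination of wild-type-normalised replicate fold changes, kanamycin versus none.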

Sequence	self-splicing fitness (ln) (30 °C)	self-splicing fitness (ln) (37 °C)
GCGGAGCAAUAUUACGUCUG	-3.82 ± 0.42	-2.44 ± 0.41
AUGGAGCAAUAUUACGAUGA	-2.98 ± 0.41	-1.36 ± 0.46
AAGGAGCAAUAUUACGUCUA	-0.839 ± 0.24	-0.933 ± 0.27
UUGCAGCAAUAUUACGUUAA	-1.55 ± 0.1	-0.515 ± 0.089
UCCAAGCAAUAUUACGUCUA	-2.26 ± 0.13	-0.9 ± 0.11
CGCGAGCAAUAUUACGAACG	-3.04 ± 0.43	-2.08 ± 0.32
GUUUAGCAAUAUUACGGGAC	–	-1.98 ± 0.39
UUCGAGCAAUAUUACGUAUC	-3 ± 0.34	-0.649 ± 0.23
AGGUAGCAAUAUUACGUAGG	-3.667 ± 0.026	-2.71 ± 0.039
GAGGAGCAAUAUUACGUCAU	-2.41 ± 0.39	-2.26 ± 0.4
GUGCAGCAAUAUUACGCCAC	–	-1.95 ± 0.47
GCGGAGCAAUAUUACGGACG	-3.15 ± 0.47	-2.33 ± 0.42
GUGCAGCAAUAUUACGAACU	-1.16 ± 0.11	0.161 ± 0.12
GCGGAGCAAUAUUACGUUUU	-3.29 ± 0.21	-2.02 ± 0.21
CUGCAGCAAUAUUACGCUAU	-4.29 ± 0.25	-3.04 ± 0.25
UAAAAGCAAUAUUACGUGGG	-3.67 ± 0.23	-1.44 ± 0.13
GCCUAGCAAUAUUACGCAAG	-3.71 ± 0.47	–
GAGGAGCAAUAUUACGUUAC	-3.66 ± 0.25	-3.09 ± 0.4
ACUCAGCAAUAUUACGAAGG	-0.983 ± 0.1	-1.19 ± 0.14
ACCUAGCAAUAUUACGACAA	-0.996 ± 0.14	-0.881 ± 0.16
AUAUAGCAAUAUUACGGGGU	-2.23 ± 0.18	-2.25 ± 0.29

Sequence	self-splicing fitness (ln) (30 °C)	self-splicing fitness (ln) (37 °C)
AGAAAGCAAUAUUACGUUCC	-2.59 ± 0.43	-1.23 ± 0.39
UAAAAGCAAUAUUACGGUGU	-3.4 ± 0.13	-2.83 ± 0.15
CCUAAGCAAUAUUACGAUGC	-3.49 ± 0.17	-1.88 ± 0.16
CUGCAGCAAUAUUACGGACC	-5.3 ± 0.36	-2.18 ± 0.31
UGUGAGCAAUAUUACGAAAU	-3.01 ± 0.18	-3.22 ± 0.35
ACAGAGCAAUAUUACGUGGG	-2.64 ± 0.12	-2.4 ± 0.16
UAACAGCAAUAUUACGUUGA	-2.95 ± 0.14	-1.34 ± 0.1
GCGGAGCAAUAUUACGUGGC	-2.82 ± 0.18	-3.01 ± 0.43
GAUGAGCAAUAUUACGCUCU	-3.24 ± 0.36	-2.02 ± 0.44
CGUGAGCAAUAUUACGUUUG	-2.04 ± 0.12	-1.5 ± 0.21
UGGUAGCAAUAUUACGGUCU	-0.135 ± 0.21	-0.457 ± 0.33
AAAAAGCAAUAUUACGCGCU	-0.379 ± 0.076	-0.358 ± 0.091
AAGCAGCAAUAUUACGUGAG	-1.07 ± 0.045	-0.437 ± 0.066
CAAUAGCAAUAUUACGAAAC	–	-1.35 ± 0.24
AGCAAGCAAUAUUACGCACA	-0.316 ± 0.082	0.365 ± 0.12
GGUCAGCAAUAUUACGCAUA	-0.703 ± 0.088	-0.214 ± 0.11
UCGCAGCAAUAUUACGCUCU	-3.55 ± 0.23	-1.35 ± 0.13
GAUAAGCAAUAUUACGACUG	-1.18 ± 0.2	0.14 ± 0.25
CAAGAGCAAUAUUACGUGCG	-1.17 ± 0.074	0.135 ± 0.09
UGAUAGCAAUAUUACGCGGU	-3.34 ± 0.27	-1.99 ± 0.22
ACCCAGCAAUAUUACGGAAA	-0.977 ± 0.083	-0.213 ± 0.083

Sequence	self-splicing fitness (ln) (30 °C)	self-splicing fitness (ln) (37 °C)
GCGUAGCAAUAUUACGUAAG	-3.03 ± 0.23	-2.66 ± 0.25
AGCAAGCAAUAUUACGCAUA	-1.96 ± 0.14	-1.06 ± 0.15
AGAUAGCAAUAUUACGAACU	-0.83 ± 0.16	0.533 ± 0.17
ACAAAGCAAUAUUACGGCAA	-0.0281 ± 0.08	-0.252 ± 0.1
UUAGAGCAAUAUUACGCGGG	-1.91 ± 0.13	-0.56 ± 0.13
GCGUAGCAAUAUUACGCAGC	-3.61 ± 0.47	-2.75 ± 0.38
UGUUAGCAAUAUUACGAAUG	-1.1 ± 0.097	-0.239 ± 0.13
UGCGAGCAAUAUUACGAUGA	-2.13 ± 0.16	-1.4 ± 0.13
CCUUAGCAAUAUUACGUUAG	-4.07 ± 0.21	-2.67 ± 0.26
UAUCAGCAAUAUUACGCAGU	-2.62 ± 0.13	-0.577 ± 0.11
UGAAAGCAAUAUUACGAUGC	–	-2.83 ± 0.41
ACUAAGCAAUAUUACGCUAC	-3.94 ± 0.23	-1.08 ± 0.18
AACAAGCAAUAUUACGCGUU	-3.91 ± 0.2	-3.32 ± 0.18
CGCGAGCAAUAUUACGCAGU	-2.99 ± 0.16	-2.77 ± 0.17
UGGAAGCAAUAUUACGUCCC	-0.397 ± 0.19	0.402 ± 0.22
UAGCAGCAAUAUUACGGCCA	0.54 ± 0.1	0.33 ± 0.16
AUACAGCAAUAUUACGGAGA	-3.81 ± 0.33	-0.736 ± 0.27
CCCAAGCAAUAUUACGGCGA	-3.88 ± 0.2	-1.69 ± 0.17
CACCAGCAAUAUUACGGGAC	-4.05 ± 0.13	-2.05 ± 0.1
